Molecular target: HA-tagged mutant (Leu15) AP2σ2 subunit (human) (human) (UniProt P53680)
Assay: co-IP; lysates of HEK293 cells stably expressing FLAG-CaSR with HA-tagged WT or Leu15 AP2σ2; anti-HA-sepharose beads 2 h; blots with anti-AP2α, anti-AP2β2 and anti-AP2μ2 for the endogenous subunits; lysis buffer 0.5% NP40, 135 mM NaCl, 20 mM Tris pH 7.5, 1 mM EDTA

reduction of the subunit in the HA-AP2σ2 immunoprecipitate, Leu15 cells against WT cells: > 50%
Substance: AP2α subunit, endogenous in HEK293 (from UniProt O95782 1-977) (natural protein)

Reference: publication PMC8165646
